What was measured:
[1] = target: Golgi anti-apoptotic protein (GAAP) from vaccinia virus strain Evans, purified (vaccinia virus (VACV) strain Evans); experiment: SEC
[2] = target: Golgi anti-apoptotic protein (GAAP) from camelpox virus, wild type, purified (camelpox virus (CMLV)); experiment: SEC

| Substance | percent of total protein in oligomeric states (% of total protein) [1] | percent of protein oligomeric [2] | percent of total protein in oligomeric states (% of total protein) [2] |
| --- | --- | --- | --- |
| Golgi anti-apoptotic protein (GAAP) from vaccinia virus strain Evans, purified (natural protein) | 64 |  |  |
| Golgi anti-apoptotic protein (GAAP) from camelpox virus, wild type, purified (natural protein) |  | 84% | 87 |

Source: article PMC4416878
